A short description of data set [1]: GTPase activity (hydrolysis of 32P-labelled GTP, PEI cellulose TLC, bioimaging analyzer). The conditions noted are these: immunoprecipitate on anti-HA antibody sepharose, one hour at 30° C., FIG. 5. In kind it is biochemical.
Data set [2] is described as follows: GTP binding ability (UV cross-linking with [γ-35S] GTP, SDS-PAGE, autoradiography). The conditions noted are these: [γ-35S] GTP 1 μM, one hour at 30° C., protein expressed in E. coli DH5α. The procedure:
As Mms 16 of the present invention contained many GTP binding proteins and homologous sequences, the GTP binding ability of Mms 16 was investigated as follows. 1 μl of [γ-^35S] GTP (1 μM; 1,250 Ci/mmol) and cell homogenate were mixed in 20 μl binding buffer (50 mM Tris-HCl, 5 mM MgCl2, 1 mM EDTA, 0.3% Tween 20), and kept still for one hour at 30° C. Then, the obtained reaction mixture was kept still on ice for 20 minutes, and ultraviolet bridging was performed between GTP and protein by using an ultraviolet lamp. Subsequently, ½ amount of 3× sample buffer was added to the reaction solution to denature the protein, and sepharose beads were precipitated by centrifugation, supernatant was loaded onto 15% (w/v) acrylamide gel. After SDS-PAGE, the gel was dried and wrapped in Saran Wrap, and detection was conducted by autoradiography.
As a result, in addition to the protein that binds to [γ-^35S] […] GTP. In case where [α-^32P] GTP is used, [α-^32P] GTP binding type of GTPase is not observed because GDP also dissociates from GTPase when phosphoric acid in position γ dissociates from GTP binding type GTPase by hydrolysis activity. However, in case where [γ-^35S] GTP is used, it is possible to show the presence of GTPase because S is binding to 5′ of phosphoric acid in position γ, and therefore, hydrolysis is not caused by GTPase.

As for “Mms 16-HA fusion protein: Mms 16 fused at C-terminal with hemagglutinin epitope tag (YPYDVPDYA), expressed in E. coli from pTrc 16HA”, in data set [1], the GTPase activity result was “[α-^32P] GTP was hydrolyzed”.

B1: Mms 16: 16 kDa protein specific to a magnetic particle membrane of Magnetospirillum sp. AMB-1, amino acid sequence Seq. ID No. 2 (protein, listed as Magnetospirillum sp.)
chain: MAAKQTEQFFDFDVAKYLGDFKVPGVDVETIVANQRKNIEALTQANKLAFEGLQNVVKRQVEILRQTMDEVAQVSKDFAEPGSPQGKAAKQAEFAKDAFERALXNARELAEMIAKANSEAFDLLNKXFTQSLDEAREVFTKAGKK
modifications: X: residue not identified in the source
notes: 16 kDa protein specific to a magnetic particle membrane of Magnetospirillum sp; ID No. 2
For B1, the GTPase activity result in data set [1] was “has GTPase activity”. For the same molecule, the GTP binding ability entry in data set [2] is “apparently bind to [γ-^35S] GTP”.

The values above are taken from patent US20040048289A1, “Magnetic particle membrane-specific protein” (priority 2000, published 2004).
